Positions count from the first letter of the chain named. Blank lines part the entries; values can stand above or below the binder they belong to.
Target: T1, hen egg white lysozyme (hen, UniProt P00698 19-147, biotinylated (HEL-b); sites not stated)
T1 construct: also called lyzozyme; HEL-b (biotinylated)
Assay: yeast display selection

T1 sequence (P00698 19-147 limits assumed): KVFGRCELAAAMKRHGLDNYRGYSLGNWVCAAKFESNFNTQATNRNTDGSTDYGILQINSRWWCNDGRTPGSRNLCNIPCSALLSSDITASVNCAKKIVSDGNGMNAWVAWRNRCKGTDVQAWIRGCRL

B6: SEQ ID NO 105 (designed binder)
chain: VSDVPRDLEVVAATPTSLLISWDAPAVTVRYYRITYGEGRRYGQEFTVPGSKSTATISELLSEVDYTITVYAVTGRGESPASSKPISINYSLRY
binding result: binds

B10: SEQ ID NO 107 (designed binder)
chain: B6 chain with G39S, R40G, Y42R, E59S, L60P, L61S, S62L, S91R, L92S, R93G
binding result: binds

B11: SEQ ID NO 49 (designed binder)
chain: VSDVPRDLEVVAATPTSLLISWDAPAVTVRYYRITYGERGSEAERQEFTVPGSKSTATISQAYYGVDYTITVYAVTGRGESPASSKPISINYSYAS
binding result: binds

B13: SEQ ID NO 111 (designed binder)
chain: VSDVPRDLEVVAATPTSLLISWDAPAVTVRYYRITYGESEGGSSRSQEFTVPGSKSTATISRSYQPVDYTITVYAVTGRGESPASSKPISINYGSYP
binding result: binds

B14: SEQ ID NO 50 (designed binder)
chain: VSDVPRDLEVVAATPTSLLISWDAPAVTVRYYRITYGESLYYHQEFTVPGSKSTATISASYYAVDYTITVYAVTGRGESPASSKPISINYSYHL
binding result: binds

B17: SEQ ID NO 52 (designed binder)
chain: VSDVPRDLEVVAATPTSLLISWDAPAVTVRYYRITYGESSRSPRGQEFTVPGSKSTATISRAEYRVDYTITVYAVTGRGESPASSKPISINYYLRQ
binding result: binds

B19: SEQ ID NO 47 (designed binder)
chain: VSDVPRDLEVVAATPTSLLISWDAPAVTVRYYRITYGEERGYERSRQEFTVPGSKSTATISESYRYVDYTITVYAVTGRGESPASSKPISINYPHSY
binding result: binds

B20: SEQ ID NO 95 (designed binder)
chain: VSDVPRDLEVVAATPTSLLISWDAPAVTVRYYRITYGEYEYARQEFTVPGSKSTATISRLYRRVDYTITVYAVTGRGESPASSKPISINYYRSA
binding result: binds

B22: SEQ ID NO 92 (designed binder)
chain: B20 chain with Y41R, A42Y, R59S, L60Q, Y61S, R63Y, Y91G, S93P
binding result: binds

B23: SEQ ID NO 96 (designed binder)
chain: B20 chain with E40H, A42S, R43E, R59Y, L60Y, Y61E, R62P, Y91H, R92S, A94R
binding result: binds

B25: SEQ ID NO 112 (designed binder)
chain: VSDVPRDLEVVAATPTSLLISWDAPAVTVRYYRITYGEQYYHQGRRQEFTVPGSKSTATISRYGGSVDYTITVYAVTGRGESPASSKPISINYYAYG
binding result: binds

B30: SEQ ID NO 89 (designed binder)
chain: VSDVPRDLEVVAATPTSLLISWDAPAVTVRYYRITYGEGRHPSYQEFTVPGSKSTATISPSYSRVDYTITVYAVTGRGESPASSKPISINYSRER
binding result: binds

B33: SEQ ID NO 93 (designed binder)
chain: VSDVPRDLEVVAATPTSLLISWDAPAVTVRYYRITYGEYPREYQEFTVPGSKSTATISRYGYHVDYTITVYAVTGRGESPASSKPISINYSGYS
binding result: binds

B35: SEQ ID NO 54 (designed binder)
chain: VSDVPRDLEVVAATPTSLLISWDAPAVTVRYYRITYGESLRSREGQEFTVPGSKSTATISGRQESVDYTITVYAVTGRGESPASSKPISINYGQRY
binding result: binds

B37: SEQ ID NO 98 (designed binder)
chain: VSDVPRDLEVVAATPTSLLISWDAPAVTVRYYRITYGERSSRSQEFTVPGSKSTATISHSREPVDYTITVYAVTGRGESPASSKPISINYQYRY
binding result: binds

B40: SEQ ID NO 106 (designed binder)
chain: B37 chain with R39S, S40G, S41Y, S43Y, H59G, S60Y, P63H, Y92E, R93S
binding result: binds

B41: SEQ ID NO 113 (designed binder)
chain: VSDVPRDLEVVAATPTSLLISWDAPAVTVRYYRITYGERRGQYGSSQEFTVPGSKSTATISSPEGSVDYTITVYAVTGRGESPASSKPISINYSRSE
binding result: binds

The remaining lines, values ahead:

binding result: binds
B1: SEQ ID NO 88 (designed binder)
chain: VSDVPRDLEVVAATPTSLLISWDAPAVTVRYYRITYGESSSSRRQEFTVPGSKSTATISGEESYVDYTITVYAVTGRGESPASSKPISINYAEER

binding result: binds
B2: SEQ ID NO 46 (designed binder)
chain: VSDVPRDLEVVAATPTSLLISWDAPAVTVRYYRITYGEYRSYRSERQEFTVPGSKSTATISRGYRAVDYTITVYAVTGRGESPASSKPISINYSYRY

binding result: binds
B3: SEQ ID NO 48 (designed binder)
chain: VSDVPRDLEVVAATPTSLLISWDAPAVTVRYYRITYGEQSGLSEHQEFTVPGSKSTATISSLRYYVDYTITVYAVTGRGESPASSKPISINYAYEY

binding result: binds
B4: SEQ ID NO 103 (designed binder)
chain: B6 chain with G39S, R41E, Y42G, E59S, L60Y, L61Q, S91A, L92R, R93S, Y94R

binding result: binds
B5: SEQ ID NO 104 (designed binder)
chain: VSDVPRDLEVVAATPTSLLISWDAPAVTVRYYRITYGEGQQGGQEFTVPGSKSTATISAYRGPVDYTITVYAVTGRGESPASSKPISINYYGSY

binding result: binds
B7: SEQ ID NO 94 (designed binder)
chain: B33 chain with P40E, R41H, E42Y, R59P, G61A, Y62G, H63G, G92E, Y93S, S94E

binding result: binds
B8: SEQ ID NO 100 (designed binder)
chain: VSDVPRDLEVVAATPTSLLISWDAPAVTVRYYRITYGEEEEHPQEFTVPGSKSTATISSPQRGVDYTITVYAVTGRGESPASSKPISINYYSYY

binding result: binds
B9: SEQ ID NO 102 (designed binder)
chain: B8 chain with E39Y, E40G, E41A, H42L, P43E, S59R, P60S, R62A, G63E, Y91A

binding result: binds
B12: SEQ ID NO 109 (designed binder)
chain: VSDVPRDLEVVAATTTSLLISWDAPAVTVRYYRITYGESGRGAQEFTVPGSKSTATISGLGPPVDYTITVYAVTGRGESPASSKPISINYRSQH

binding result: binds
B15: SEQ ID NO 44 (designed binder)
chain: VSDVPRDLEVVAATPTSLLISWDAPAVTVRYYRITYGESSLGSEQEFTVPGSKSTATISEYAPYVDYTITVYAVTGRGESPASSKPISINYYGPG

binding result: binds
B16: SEQ ID NO 87 (designed binder)
chain: VSDVPRDLEVVAATPTSLLISWDAPAVTVRYYRITYGEAYGESYQEFTVPGSKSTATISQSPEYVDYTITVYAVTGRGESPASSKPISINYASEY

binding result: binds
B18: SEQ ID NO 53 (designed binder)
chain: B17 chain with R41P, S42E, P43Y, R61L, A62E, R65E, A83T, Y93Q, L94Y, Q96Y

binding result: binds
B21: SEQ ID NO 91 (designed binder)
chain: B33 chain with P40Q, E42S, Y43R, R59S, Y62G, H63Y, S91R, G92S, Y93L, S94R

binding result: binds
B24: SEQ ID NO 97 (designed binder)
chain: B20 chain with Y39Q, E40R, A42L, R59S, L60R, Y61S, R62A, Y91P, R92Y

binding result: binds
B26: SEQ ID NO 116 (designed binder)
chain: VSDVPRDLEVVAATPTSLLISWDAPTVTVRYYRITYGEPQASHRPYQEFTVPGSKSTATISSRSQSVDYTITVYAVTGRGESPASSKPISINYLREL

binding result: binds
B27: SEQ ID NO 114 (designed binder)
chain: VSDVPRDLEVVAATPTSLLISWDAPAVTVRYYRITYGEQRYSYYGQQEFTVPGSKSTATISSGRSSVDYTITVYAVTGRGESPASSKPISINYRRSY

binding result: binds
B28: SEQ ID NO 115 (designed binder)
chain: B27 chain with Q39R, R40P, Y41A, Y44R, G45A, Q46A, G63Y, R64S, S65Y, Y97G

binding result: binds
B29: SEQ ID NO 43 (designed binder)
chain: VSDVPRDLEVVAATPTSLLISWDAPAVTVRYYRITYGEEAYRSEGQEFTVPGSKSTATISSYGQGVDYTITVYAVTGRGESPASSKPISINYEGSE

binding result: binds
B31: SEQ ID NO 90 (designed binder)
chain: B33 chain with Y39G, P40E, E42P, R59Y, Y60A, G61H, H63S, S91E, G92R, Y93R

binding result: binds
B32: SEQ ID NO 108 (designed binder)
chain: VSDVPRDLEVVAATPTSLLISWDAPAVTVRYYRITYGEPRRRYQEFTVPGSKSTATISPGGQSVDYTITVYAVTGRGESPASSKPISINYGRGY

binding result: binds
B34: SEQ ID NO 110 (designed binder)
chain: VSDVPRDLEVVAATPTSLLISWDAPAVTVRYYRITYGESSGYAERGQEFTVPGSKSTATISSPGARVDYTITVYAVTGRGESPASSKPISINYSSLG

binding result: binds
B36: SEQ ID NO 45 (designed binder)
chain: VSDVPRDLEVVAATPTSLLISWDAPAVTVRYYRITYGEQAQEEGQEFTVPDSKSTATISAHRSYVDYTITVYAVTGRGESPASSKPISINYYYGE

binding result: binds
B38: SEQ ID NO 101 (designed binder)
chain: B37 chain with R39E, S43P, H59Q, S60A, E62A, P63R, Q91R, Y92R, R93Y, Y94R

binding result: binds
B39: SEQ ID NO 99 (designed binder)
chain: B37 chain with R39S, S40Q, R42H, S60P, R61S, E62R, Q91P, Y92R, R93S, Y94E
